The values below come from paper PMC4885069.

As usually defined, the Kd is the concentration at which binding is half-saturated.

In test [1] the target is GST-hSV2C 455-579 (human synaptic vesicle glycoprotein 2C, luminal domain 4, GST fusion) (UniProt Q496J9). To be noted: 25 °C, PBS (composition not given) at pH 7.3, 150 mM NaCl at pH 5.0.
Test [2] has the same target. Put plainly: SPR (Biacore X100), kinetic evaluation. To be noted: pH 7.3; 25 °C; PBS (composition not given) at pH 7.3; PBS (pH 7.3).
The target in test [3] is synaptotagmin LD (Rattus norvegicus) (UniProt P29101). As to the kind of experiment: ITC. To be noted: cited from earlier work.

Values joined by “and” are separate entries in the source; they are usually repeats but may differ in a detail not shown here. Equal values may be shown once. Read-outs that look alike come from different tables or passages of the source. Bounds are passed on as bounds.

Sequence of UniProt Q496J9 (Q496J9 whole entry, the tested form may be a part): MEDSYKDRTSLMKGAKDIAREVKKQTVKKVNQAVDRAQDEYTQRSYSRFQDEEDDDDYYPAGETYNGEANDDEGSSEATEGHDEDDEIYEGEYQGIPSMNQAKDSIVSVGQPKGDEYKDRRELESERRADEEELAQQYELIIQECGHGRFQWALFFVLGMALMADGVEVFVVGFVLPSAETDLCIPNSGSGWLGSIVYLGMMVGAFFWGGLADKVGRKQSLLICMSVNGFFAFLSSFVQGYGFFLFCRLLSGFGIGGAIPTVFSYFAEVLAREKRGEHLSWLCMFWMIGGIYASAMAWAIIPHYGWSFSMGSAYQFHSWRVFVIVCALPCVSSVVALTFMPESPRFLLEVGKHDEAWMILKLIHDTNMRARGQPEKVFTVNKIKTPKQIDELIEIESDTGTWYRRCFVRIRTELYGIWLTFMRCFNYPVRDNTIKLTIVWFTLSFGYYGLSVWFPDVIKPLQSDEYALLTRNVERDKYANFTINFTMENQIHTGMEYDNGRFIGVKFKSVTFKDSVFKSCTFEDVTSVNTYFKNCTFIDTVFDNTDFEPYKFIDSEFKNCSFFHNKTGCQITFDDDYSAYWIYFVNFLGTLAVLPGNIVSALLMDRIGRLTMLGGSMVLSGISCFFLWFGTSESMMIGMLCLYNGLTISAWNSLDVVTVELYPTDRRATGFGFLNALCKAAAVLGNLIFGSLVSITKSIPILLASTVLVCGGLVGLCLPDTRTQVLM
Sequence of UniProt P29101 (P29101 1-60): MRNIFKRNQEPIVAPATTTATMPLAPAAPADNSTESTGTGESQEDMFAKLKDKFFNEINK

“Botulinum neurotoxin serotype A HC fragment (HCA / HCAS), 50 kDa cell-binding domain”: in test [1] (pH 5.0), the KD Steady State is greater than 1.2 µM. Moreover, in test [1] (pH 7.3), the KD Steady State was determined as 0.4 µM. For the same substance, in test [2], the KD Kinetics worked out at 0.39 µM, the ka turned out to be 310000 M⁻¹ s⁻¹ and the kd is 0.12 s⁻¹.
As for BoNT/B (from UniProt P10844), in test [3], the dissociation constant Kd was 0.14 µM and 0.034 µM.
